From paper PMC4829425 come the findings set out here.

Assay [1] addresses VEGFR-2 EC+TM-(GGS)5-YFP or -mCherry (human) (UniProt P35968).
Assay [2] addresses full length wild-type human VEGFR-2 (human) (UniProt P35968).
The target in assay [3] is VEGFR-2 EC(C482R)+TM(N762I-V769I-G770I)-(GGS)5-YFP or -mCherry (human) (UniProt P35968). Briefly: FRET or BRET; QI-FRET between YFP- and mCherry-tagged copies in single plasma membrane-derived vesicles of co-transfected CHO cells, no ligand; monomer-dimer equilibrium model, dimer to monomers; two-dimensional concentrations (receptors per square micron). A general note: Bioluminescence resonance energy transfer reports proximity on the nanometre scale.

Assay [4] has as its target VEGFR-2 EC(C482R)+TM-(GGS)5-YFP or -mCherry (human) (UniProt P35968). Briefly: FRET or BRET; QI-FRET in CHO plasma membrane-derived vesicles with 3 ug/ml VEGF-A121, 1 hr at room temperature.
Assay [5] shares this target. Briefly: FRET or BRET; QI-FRET between YFP- and mCherry-tagged copies in single plasma membrane-derived vesicles of co-transfected CHO cells, no ligand; monomer-dimer equilibrium model, dimer to monomers; two-dimensional concentrations (receptors per square micron).
Assay [6] has as its target VEGFR-2 EC+TM(E764I-T771I-F778I)-(GGS)5-YFP or -mCherry (human) (UniProt P35968). The experiment in a line: FRET or BRET; QI-FRET in CHO plasma membrane-derived vesicles with 3 ug/ml VEGF-A121, 1 hr at room temperature.
Assay [7] shares this target. Briefly: FRET or BRET; QI-FRET between YFP- and mCherry-tagged copies in single plasma membrane-derived vesicles of co-transfected CHO cells, no ligand; monomer-dimer equilibrium model, dimer to monomers; two-dimensional concentrations (receptors per square micron).
Assay [8] addresses VEGFR-2 EC+TM(N762I-V769I-G770I)-(GGS)5-YFP or -mCherry (human) (UniProt P35968). Briefly: FRET or BRET; QI-FRET in CHO plasma membrane-derived vesicles with 3 ug/ml VEGF-A121, 1 hr at room temperature.
The target of assay [9] is VEGFR-2 EC+TM-(GGS)5-YFP or -mCherry (human) (UniProt P35968). The experiment in a line: FRET or BRET; QI-FRET in CHO plasma membrane-derived vesicles with 3 ug/ml VEGF-D, 1 hr at room temperature.
For assay [10] the target is unchanged. Briefly: FRET or BRET; QI-FRET in CHO plasma membrane-derived vesicles with 3 ug/ml VEGF-C, 1 hr at room temperature.
Assay [11] has the same target. Briefly: FRET or BRET; QI-FRET in CHO plasma membrane-derived vesicles with 3 ug/ml VEGF-E, 1 hr at room temperature.
The target is the same in assay [12]. Briefly: FRET or BRET; QI-FRET in CHO plasma membrane-derived vesicles with 3 ug/ml VEGF-A165a, 1 hr at room temperature.
The target is the same in assay [13]. Briefly: FRET or BRET; QI-FRET in CHO plasma membrane-derived vesicles with 3 ug/ml VEGF-A121, 1 hr at room temperature.
The target is the same in assay [14]. Briefly: FRET or BRET; QI-FRET in CHO plasma membrane-derived vesicles with 3 ug/ml VEGF-A165b, 1 hr at room temperature.

Some results are limits rather than exact numbers.

Regarding VEGF-E (ligand), the Intrinsic FRET of the EC+TM dimer (YFP/mCherry) with 3 ug/ml ligand; 0.61 without ligand in assay [1] worked out at 0.44. Also, the phosphorylation of full-length VEGFR-2 (Tyr 1175, Western blot) with 3 ug/ml ligand against no ligand in [2] was under 10 fold.

In turn, “VEGFR-2 EC(C482R)+TM(N762I-V769I-G770I)-(GGS)5-YFP or -mCherry (from UniProt P35968 20-1356) (domain or fragment)” yielded a percent dimer in assay [3] of 100%.

Regarding “VEGFR-2 EC(C482R)+TM-(GGS)5-YFP or -mCherry (from UniProt P35968 20-1356) (domain or fragment)”, the percent dimer in assay [4] and in assay [5] was 100% throughout.

For “VEGFR-2 EC+TM(E764I-T771I-F778I)-(GGS)5-YFP or -mCherry (from UniProt P35968 20-1356) (domain or fragment)”, the percent dimer in assay [6] and in [7] was 100% throughout.

As for “VEGFR-2 EC+TM(N762I-V769I-G770I)-(GGS)5-YFP or -mCherry (from UniProt P35968 20-1356) (domain or fragment)”, in assay [8], the percent dimer came to 100%.

Consider “VEGFR-2 EC+TM-(GGS)5-YFP or -mCherry (from UniProt P35968 20-1356) (domain or fragment)”, for which the percent dimer in assay [9], in assay [10], in assay [11], in assay [12], in [13] and in assay [14] was 100% in each case.

Regarding “human VEGF-C (from UniProt P49767 112-227) (ligand)”, the Intrinsic FRET of the EC+TM dimer (YFP/mCherry) with 3 ug/ml ligand; 0.61 without ligand in assay [1] worked out at 0.45. Moreover, the phosphorylation of full-length VEGFR-2 (Tyr 1175, Western blot) with 3 ug/ml ligand against no ligand in [2] is under 10 fold.

Take “human VEGF-D (from UniProt O43915 89-205) (ligand)”: the Intrinsic FRET of the EC+TM dimer (YFP/mCherry) with 3 ug/ml ligand; 0.61 without ligand in assay [1] was 0.43. In addition, the phosphorylation of full-length VEGFR-2 (Tyr 1175, Western blot) with 3 ug/ml ligand against no ligand in [2] was under 10 fold.
